What all share (assay): BLI
In general terms: Biolayer interferometry detects binding as a change in optical thickness at a sensor tip.

Test [1] deals with vWF-A1 of D. albiventus (D. albiventus (Didelphis)).
For test [2], the target named is vWF-A1 of P. quica (P. quica (Philander)).
The target in test [3] is vWF-A1 of C. minimus (C. minimus (Chironectes)).
The target of test [4] is vWF-A1 of Monodelphis domestica (Monodelphis domestica).
Test [5] deals with vWF-A1 of D. aurita (made by site-directed mutagenesis of the D. marsupialis construct) (D. aurita (Didelphis)).
Test [6] has as its target vWF-A1 of Didelphis virginiana (Didelphis virginiana).
Test [7] concerns the target vWF-A1 of Monodelphis emiliae (Monodelphis emiliae).
Test [8] concerns the target vWF-A1 of D. marsupialis (D. marsupialis (Didelphis)).
The target in test [9] is vWF-A1 of Lutreolina crassicaudata (Lutreolina crassicaudata).

On to “botrocetin (isoform B) (natural protein)”, for which the fold reduction of binding affinity against human vWF in [1] is more than 8 fold; in test [2], more than 8 fold; in test [3], more than 8 fold; in test [4] it was more than 8 fold; in test [5], 8 fold; in test [6], more than 8 fold. The fold reduction of binding affinity against human vWF in test [7], in test [8] and in test [9] was more than 8 fold throughout.

As to “botrocetin (isoform A) (natural protein)”, the fold reduction of binding affinity against human vWF in test [6] and in [8] was more than 8 fold each time.
